Reference: patent publication US20220042026A1 (UNIVERSITY COURT OF THE UNIVERSITY OF GLASGOW, published 2022)

Molecular target: the molecule itself
Test: immunoblot of unboiled N. benthamiana leaf extract, SDS-PAGE, anti-Kcv detection

B1: Blue Light-INduced K+ channel 1 (BLINK1) (other)
chain: MGCTVSAELATTLERIEKNFVITDPRLPDNPIIFASDSFLQLTEYSREEILGRNCRFLQGPETDRATVRKIRDAIDNQTEVTVQLINYTKSGKKFWNLFHLQPMRDQKGDVQYFIGVQLDGTEHVRDAAEREGVMLIKKTAEVFSKFLTRTEPFMIHLFILAMFVMIYKFFPGGFENNFSVANPDKKASWIDCIYFGVTTHSTVGFGDILPKTTGAKLCTIAHIVTVFFIVLTL
notes: Expressed transiently under the CaMV 35S promoter in N. benthamiana leaves; Unboiled total protein extract was run on SDS-PAGE; The tetramer was detected, with an expected Mw of 106.5 kDa; also called synthetic, blue light-gated K+ channel
- binding result: binds
